Reference: publication PMC13071878, “Yeast Display Technology Enables Rapid Discovery of Low-Nanomolar Macrocyclic Peptide Inhibitors of Human Angiotensin-Converting Enzyme 2” (Journal of Medicinal Chemistry, 2026)

What was measured:
[1] = target: extracellular catalytic domain of human angiotensin-converting enzyme 2 (hACE2), produced in mammalian cells (human) (UniProt Q9BYF1); experiment: enzyme inhibition assay
[2] = target: human angiotensin-converting enzyme 1 (hACE1) (human) (UniProt P12821); experiment: enzyme inhibition assay
Sequence of human angiotensin-converting enzyme 1 (hACE1) (human) (P12821 30-1256): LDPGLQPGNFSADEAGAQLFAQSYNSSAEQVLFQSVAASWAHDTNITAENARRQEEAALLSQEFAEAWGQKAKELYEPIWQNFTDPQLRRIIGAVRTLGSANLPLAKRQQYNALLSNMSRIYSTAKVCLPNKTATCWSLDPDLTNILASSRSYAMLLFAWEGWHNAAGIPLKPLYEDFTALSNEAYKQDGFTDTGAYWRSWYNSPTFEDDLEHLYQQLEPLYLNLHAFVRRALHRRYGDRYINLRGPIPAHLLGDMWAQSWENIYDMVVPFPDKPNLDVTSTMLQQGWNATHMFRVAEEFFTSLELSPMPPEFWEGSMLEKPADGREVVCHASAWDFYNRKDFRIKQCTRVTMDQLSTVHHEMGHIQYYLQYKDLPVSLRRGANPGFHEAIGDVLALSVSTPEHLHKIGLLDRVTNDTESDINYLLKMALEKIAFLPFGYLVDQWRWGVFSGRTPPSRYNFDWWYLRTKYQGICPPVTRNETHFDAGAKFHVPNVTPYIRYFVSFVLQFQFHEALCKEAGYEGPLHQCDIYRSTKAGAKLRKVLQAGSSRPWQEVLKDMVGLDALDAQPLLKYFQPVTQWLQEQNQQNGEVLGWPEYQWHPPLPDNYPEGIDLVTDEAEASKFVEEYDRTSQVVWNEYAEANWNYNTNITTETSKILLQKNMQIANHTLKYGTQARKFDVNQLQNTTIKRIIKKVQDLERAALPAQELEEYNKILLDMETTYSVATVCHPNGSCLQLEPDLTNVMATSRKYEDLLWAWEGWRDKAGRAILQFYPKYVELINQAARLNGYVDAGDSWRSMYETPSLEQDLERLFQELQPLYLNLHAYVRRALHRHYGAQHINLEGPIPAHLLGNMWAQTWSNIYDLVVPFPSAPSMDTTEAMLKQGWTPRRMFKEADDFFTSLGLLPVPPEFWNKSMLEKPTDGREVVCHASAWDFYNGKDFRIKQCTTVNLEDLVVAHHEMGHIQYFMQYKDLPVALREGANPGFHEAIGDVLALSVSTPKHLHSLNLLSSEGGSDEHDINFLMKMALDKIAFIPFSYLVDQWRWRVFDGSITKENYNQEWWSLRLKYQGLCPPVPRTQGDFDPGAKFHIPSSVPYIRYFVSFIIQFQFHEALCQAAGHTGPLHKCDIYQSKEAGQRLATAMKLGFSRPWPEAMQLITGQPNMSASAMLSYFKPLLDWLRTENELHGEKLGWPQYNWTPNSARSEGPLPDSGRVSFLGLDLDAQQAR

Sequence of extracellular catalytic domain of human angiotensin-converting enzyme 2 (hACE2), produced in mammalian cells (human) (Q9BYF1 19-615): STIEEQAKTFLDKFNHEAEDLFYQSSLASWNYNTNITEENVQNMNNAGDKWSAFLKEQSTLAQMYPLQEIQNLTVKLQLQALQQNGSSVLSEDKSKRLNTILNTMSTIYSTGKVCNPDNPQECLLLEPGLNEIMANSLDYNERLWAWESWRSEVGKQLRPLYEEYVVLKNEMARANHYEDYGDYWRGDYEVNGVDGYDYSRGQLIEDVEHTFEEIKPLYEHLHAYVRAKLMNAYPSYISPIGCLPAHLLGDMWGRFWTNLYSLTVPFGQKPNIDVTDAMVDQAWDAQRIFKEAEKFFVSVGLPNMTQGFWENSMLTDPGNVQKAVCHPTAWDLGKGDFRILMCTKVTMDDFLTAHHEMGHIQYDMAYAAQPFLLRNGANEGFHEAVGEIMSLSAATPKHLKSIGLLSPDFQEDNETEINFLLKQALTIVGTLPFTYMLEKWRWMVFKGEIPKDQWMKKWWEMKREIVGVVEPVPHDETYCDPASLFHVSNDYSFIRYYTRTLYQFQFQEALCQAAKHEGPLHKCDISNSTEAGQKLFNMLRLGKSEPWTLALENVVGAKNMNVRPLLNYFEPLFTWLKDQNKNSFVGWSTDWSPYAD

“A0773, commercially available inhibitor (peptide)” was tested. Which IC50 [1] did it give?
The IC50 was over 30000 nM.

What about the Ki [1] of the same substance?
The Ki was over 30000 nM.

And the IC50 [2]?
The IC50 was 212 nM.

And the Ki [2]?
The Ki was 53 nM.
